# Data: PMC9101030, “Myo5b Transports Fibronectin-Containing Vesicles and Facilitates FN1 Secretion from Human Pleural Mesothelial Cells” (International Journal of Molecular Sciences, 2022)
# T1: Flag-Rab11b (full length) (human, UniProt Q15907 1-218)
# T1 construct: human Rab11b, full length cDNA in a modified pFastbac HT; the nucleotide state is told by the assay; also called Rab11b-GTPγS; Rab11b-GDPβS; source: Sf9, baculovirus, purified (Ni-NTA); not shown: FLAG, N-terminal, kept
# T1 sequence (looked up): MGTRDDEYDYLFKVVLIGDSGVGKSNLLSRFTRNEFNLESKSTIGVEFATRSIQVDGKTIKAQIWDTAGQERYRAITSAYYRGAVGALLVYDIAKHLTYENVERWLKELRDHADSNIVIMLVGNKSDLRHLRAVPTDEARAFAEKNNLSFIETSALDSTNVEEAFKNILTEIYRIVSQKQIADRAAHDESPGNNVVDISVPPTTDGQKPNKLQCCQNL
# B1: GST-Rab11FIP3 Rab binding domain (694-756 a.a.) (domain or fragment, human, UniProt O75154 694-756, looked up)
# chain: QGAKSLFSTAFSESLAAEISSVSRDELMEAIQKQEEINFRLQDYIDRIIVAIMETNPSILEVK
# notes: Cloned in pET-30a with GST at the N-terminus and 6xHis at the C-terminus; also called GST-FIP3 RBD; GST-FIP3-RBD; source: E. coli BL21 (DE3), purified (Ni-NTA); not shown: GST, N-terminal, kept
# Biological target: T1, Flag-Rab11b (full length)
# Test: pull-down; GST fusion on Glutathione Sepharose 4B; Flag-Rab11b pre-treated with 5-fold excess GTPγS (30 min, 37 °C); 10 µM Rab11b, 2.5 µM Myo5b Tail, 20 µM GTPγS, 20 mM Tris-HCl pH 7.5, 150 mM NaCl, 1 mM MgCl2, 1 mM EGTA, 1 mM DTT, 0.05% Tween, 1% BSA, 4 °C, 1 h; anti-flag Western blot
# Settings: both partners purified
binder,measurement,value
B1,binding result,binds
